The nanobody polyreactivity screen of Harvey et al. (2022)

Test: yeast display, Sf9 membrane polyspecificity reagent, FACS + sequencing; frameworks hold sequencing errors
Method in brief: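 Galactose-induced (36–48 hours) yeast carrying a synthetic nanobody display library were exposed to 10% biotinylated, detergent-solubilized Sf9 membrane reagent at 4 °C for 1 hour. FACS followed streptavidin microbead enrichment, using low and high (top ~1%) gates for expression (anti-HA) and reagent binding (streptavidin). Colony PCR, MiSeq 2 × 250 sequencing and CDR-length filtering followed. Labels for polyreactivity reflect the gate of origin.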

| Sequence | polyreactivity (PSR sort gate) |
| --- | --- |
| QVQLVESGGGLVQAGGSLRLSCAASGITFGWNAMGWYRQAPGKEWELVAAITEDGYSTYYADSVKGRFTISRDNEKNTVYLQMNSLKPEDTAVYYCAAEYYDVYTYVQYDSWGQGTQVTVSS | high polyreactivity |
| QVQLVESGGGLVQAGGSLRLSCAASGITFGWYAMGWYRQAPGKERELVAAISTGSSTYYADSVKGRFTISRDNAKNTVYLQMNSLKPEDTAVYYCAAYYGISFDYWGQGSQVTVSS | high polyreactivity |
| QVQLVESGGGLVQAGGSLRLSCAASGITFGYNAMGWYIQAPGKERELVASISYSGDSTYYADSVKGRFTISRDNAKNTVYLLMNSLKPEDTAVYYCNVRNRPGGEINDYDYWGQGTQVTVSS | low polyreactivity |
| QVQLVESGGGLVQAGGSLRLSCAASGITFGYYAMGWYRQAPGKERELVAAISRTGSTTYYADSVKGRFTISRDNAKNTVYLQMNRLKPEDTAVYYCAARRWGTNGGGSPMYYWGQGTQVTVSS | high polyreactivity |
| QVQLVESGGGLVQAGGSLRLSCAASGITFGYYAMGWYRQAPGKERENVAAITRRGGSTYYADSVKGRFTISRDNAKNTVYLQMNSLKPEDTAVYYCAADSYRYWFIEDNYWGQGTQVTVSS | high polyreactivity |
| QVQLVESGGGLVQAGGSLRLSCAASGITFHPYAKGWYRQAPGNEREFVAVISFRGGRTYYADSVKGRFTISRDNAKNNVYLQMNSLKPEDTAVYYCAAQYVSRRYSRYNYWGQGTQVTVSS | high polyreactivity |
| QVQLVESGGGLVQAGGSLRLSCAASGITFIGYAMGWYRQAPGKERELVASITSGANTNYADSVKGRFTISRDNAKNTVYLQMNSLKPEDTAVYYCAAPEHGTYANILGEPLDYWGQGTQVTVSS | low polyreactivity |
| QVQLVESGGGLVQAGGSLRLSCAASGITFITYTMGWYRQEPGKERELVAGISSGGSTYYADSVKGRFTISRDNAKNTVYLQMNSLKPEDTAVYYCAAEFAGWGYYWFDYWGQGTQVTVSS | high polyreactivity |
| QVQLVESGGGLVQAGGSLRLSCAASGITFITYVMGWYRQAPGKERELVAAISLRGGRTSYADSVKGRFTISRDNAKNTVYLQMNSLKPEDTAVYYCAARAYYTRYDYWGQGTQVTVSS | high polyreactivity |
| QVQLVESGGGLVQAGGSLRLSCAASGITFIYNAMGWYRQAPGKERELVATINDGGSTNYADSVKGRFTISRDNAKNTVYLQMNSLKPEDTAVYYCNADGGPYGAVGKSDYWGQGTQVTVSS | low polyreactivity |
| QVQLVESGGGLVQAGGSLRLSCAASGITFIYYDMGWYRQAPGKEREFVAAINYRGTSTYYADSVKGRFTISRDNAKNTVYLQMNSLKPEDTAVYYCAARLRQTGGDRLGYWGQGTQVTVSS | high polyreactivity |
| QVQLVESGGGLVQAGGSLRLSCAASGITFKFNAMGWYRQAPGKERELVAAISVRGGRTYYADSVKGRFTISRDNAKNTVYLQMNSLKPEDTAVYYCAATDWFYSYYLGYGYGYWGQGTQVTVSS | high polyreactivity |
| QVQLVESGGGLVQAGGSLRLSCAASGITFKPNAMGWYRQAPGKERELVAALDTGGSTNYADSVKGRFTISRDNEKNTVYLQMNSLKPEDTEVYYCAAPYQDRDLHVSYSTYEGGYWGQGTQVTVSS | low polyreactivity |
| QVQLVESGGGLVQAGGSLRLSCAASGITFKYNAMGWYRQAPGKERELVAAISSGGNTYYADSVKGRFTISRDNAKNTVYLQMNSLKPEDTAVYYCAAPSYDTLWHDYWGQGTQVTVSS | low polyreactivity |
| QVQLVESGGGLVQAGGSLRLSCAASGITFKYYAMGWYRQAPGKERELVAAISRGGGSTYYADSVKGRFTISRDNAKNTVYLQMNSLKPEDTAVYYCNAVFYSFIQSDYWGQGTQVTVSS | high polyreactivity |
| QVQLVESGGGLVQAGGSLRLSCAASGITFKYYAMGWYRQAPGKESELVAAISRSGSSTYYADSVKGRFTISRDNAKNTVYLQINSLTPEDTAVYYCAADWKSKRTDKYDSWGQGTQVTVSS | high polyreactivity |
